Target: recombinant his-tag subtilisin-like protease-1 (SspA-1) (Streptococcus suis serotype 2 strain 05ZYH33)
Assay: MST

## recombinant glutathione S-transferase (GST)-tagged human TLR2 (from UniProt O60603 21-784) (receptor)
  Kd: 24.3 nM
